What was measured:
Experiment in all cases: no ligand; PBM; 270 nM : 90 nM RXRa; PBS pH 7.4, 2% milk, 0.02% Triton X-100, 1 mM DTT, BSA, 0.4 mg/ml salmon testes DNA
FXR:RXRa = FXR:RXRa (Homo sapiens, UniProt Q96RI1;P19793 full;full); details: tags: His kept;His cleaved; copies: 1;1; label: surface-attached array probe
In short: (§1)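 For binding z-scores, the reference was random background probes on custom Agilent 4×180K protein-binding microarrays. These arrays were incubated 1 h with ligand-free nuclear receptor dimers in PBS pH 7.4, 2% milk, 0.02% Triton X-100, 1 mM DTT, 0.2 mg/mL BSA and 0.4 mg/ml salmon testes DNA. Fluorescence was scanned after antibody detection of each partner (one per run) and regression-normalized.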

RARa:RXRa = RARa:RXRa (Homo sapiens, UniProt P10276;P19793 full;full); details: tags: His kept;His cleaved; copies: 1;1; label: surface-attached array probe
Chain of RARa:RXRa (P10276 whole entry, chain 1 of 2): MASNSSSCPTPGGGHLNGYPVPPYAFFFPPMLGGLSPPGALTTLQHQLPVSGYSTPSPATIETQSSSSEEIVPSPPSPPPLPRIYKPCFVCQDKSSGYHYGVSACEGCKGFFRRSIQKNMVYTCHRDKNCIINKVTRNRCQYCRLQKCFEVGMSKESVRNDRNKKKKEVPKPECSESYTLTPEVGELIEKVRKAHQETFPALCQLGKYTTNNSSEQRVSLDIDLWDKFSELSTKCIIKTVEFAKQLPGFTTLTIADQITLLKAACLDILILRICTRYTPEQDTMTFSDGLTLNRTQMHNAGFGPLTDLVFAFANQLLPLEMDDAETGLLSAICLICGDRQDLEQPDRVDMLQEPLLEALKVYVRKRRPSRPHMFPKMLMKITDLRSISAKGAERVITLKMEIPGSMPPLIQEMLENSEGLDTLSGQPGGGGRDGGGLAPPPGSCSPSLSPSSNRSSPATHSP
Chain of RARa:RXRa (P19793 whole entry, chain 2 of 2): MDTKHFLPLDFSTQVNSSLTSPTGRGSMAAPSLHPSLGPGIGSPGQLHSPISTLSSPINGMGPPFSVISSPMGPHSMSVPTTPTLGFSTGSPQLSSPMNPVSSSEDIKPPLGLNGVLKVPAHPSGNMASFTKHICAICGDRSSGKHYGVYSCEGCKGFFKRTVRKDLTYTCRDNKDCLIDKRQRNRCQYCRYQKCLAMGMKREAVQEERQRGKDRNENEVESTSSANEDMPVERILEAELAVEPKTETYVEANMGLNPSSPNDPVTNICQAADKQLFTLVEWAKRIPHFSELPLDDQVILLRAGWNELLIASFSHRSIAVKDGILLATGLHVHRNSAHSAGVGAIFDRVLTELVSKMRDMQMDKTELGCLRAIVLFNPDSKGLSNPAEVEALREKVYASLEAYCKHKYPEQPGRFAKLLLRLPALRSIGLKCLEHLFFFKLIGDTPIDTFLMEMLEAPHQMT
In short: as §1

RARg:RXRa = RARg:RXRa (Homo sapiens, UniProt P13631;P19793 full;full); details: tags: His kept;His cleaved; copies: 1;1; label: surface-attached array probe
Chain of RARg:RXRa (P13631 whole entry, chain 1 of 2): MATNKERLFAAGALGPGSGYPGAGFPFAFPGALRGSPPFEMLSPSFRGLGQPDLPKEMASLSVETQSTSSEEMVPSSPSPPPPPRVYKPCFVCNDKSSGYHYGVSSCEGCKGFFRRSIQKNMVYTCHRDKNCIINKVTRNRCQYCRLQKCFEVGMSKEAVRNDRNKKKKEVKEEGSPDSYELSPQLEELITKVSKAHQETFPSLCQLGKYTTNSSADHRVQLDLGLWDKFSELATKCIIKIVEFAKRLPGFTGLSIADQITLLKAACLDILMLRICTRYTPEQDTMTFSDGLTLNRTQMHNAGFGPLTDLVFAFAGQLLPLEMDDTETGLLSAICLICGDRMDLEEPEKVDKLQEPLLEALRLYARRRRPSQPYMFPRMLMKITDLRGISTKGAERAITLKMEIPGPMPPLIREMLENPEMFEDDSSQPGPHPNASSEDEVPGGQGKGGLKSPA
Chain of RARg:RXRa (P19793 whole entry, chain 2 of 2): as the sequence (P19793 whole entry, chain 2 of 2) above
In short: as §1

PPARa:RXRa = PPARa:RXRa (Homo sapiens, UniProt Q07869;P19793 full;full); details: tags: GST kept;His cleaved; copies: 1;1; label: surface-attached array probe
Chain of PPARa:RXRa (Q07869 whole entry, chain 1 of 2): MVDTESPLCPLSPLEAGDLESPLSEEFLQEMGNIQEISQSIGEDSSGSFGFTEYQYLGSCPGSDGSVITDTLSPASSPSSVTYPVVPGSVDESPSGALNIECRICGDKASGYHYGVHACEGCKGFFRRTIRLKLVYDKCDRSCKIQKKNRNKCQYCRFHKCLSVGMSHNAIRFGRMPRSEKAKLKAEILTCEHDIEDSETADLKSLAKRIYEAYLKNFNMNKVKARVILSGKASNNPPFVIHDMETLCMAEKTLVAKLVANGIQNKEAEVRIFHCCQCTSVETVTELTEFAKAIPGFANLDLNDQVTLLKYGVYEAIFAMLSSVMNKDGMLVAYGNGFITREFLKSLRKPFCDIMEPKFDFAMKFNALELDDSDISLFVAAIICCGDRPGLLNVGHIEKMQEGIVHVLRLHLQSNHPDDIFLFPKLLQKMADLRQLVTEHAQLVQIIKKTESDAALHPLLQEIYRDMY
Chain of PPARa:RXRa (P19793 whole entry, chain 2 of 2): as the sequence (P19793 whole entry, chain 2 of 2) above
In short: as §1

Chain of FXR:RXRa (Q96RI1 whole entry, chain 1 of 2): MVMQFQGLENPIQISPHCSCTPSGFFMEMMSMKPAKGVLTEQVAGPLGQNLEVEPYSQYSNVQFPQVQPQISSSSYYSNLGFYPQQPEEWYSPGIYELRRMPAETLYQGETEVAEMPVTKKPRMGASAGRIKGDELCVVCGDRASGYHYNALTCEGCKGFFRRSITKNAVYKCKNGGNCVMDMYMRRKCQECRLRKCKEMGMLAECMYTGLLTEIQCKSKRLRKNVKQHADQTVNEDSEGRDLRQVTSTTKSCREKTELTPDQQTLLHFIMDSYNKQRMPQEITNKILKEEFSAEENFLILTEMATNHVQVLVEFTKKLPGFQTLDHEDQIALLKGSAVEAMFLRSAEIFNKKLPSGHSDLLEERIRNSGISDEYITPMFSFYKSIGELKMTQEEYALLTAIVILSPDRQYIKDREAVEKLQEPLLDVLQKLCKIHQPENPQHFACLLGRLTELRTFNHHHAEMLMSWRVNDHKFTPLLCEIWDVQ
Chain of FXR:RXRa (P19793 whole entry, chain 2 of 2): as the sequence (P19793 whole entry, chain 2 of 2) above

B1: NRC3_random_hg19_214_o1 (dsDNA)
DNA 1: GCATCCGTTCCTTGGAGGGAGTCTGCAGACTGGCTGGCGATTGACAGCGTAGAATGAAGG
DNA 2: CCTTCATTCTACGCTGTCAATCGCCAGCCAGTCTGCAGACTCCCTCCAAGGAACGGATGC
FXR:RXRa
  binding signal: -0.76 PBM z-score against 500 random probes
RARa:RXRa
  binding signal: -2.33 PBM z-score against 500 random probes

B2: NRC3_random_hg19_116_o1 (dsDNA)
DNA 1: GCTGGGCACATGAGGGATGGGAGTTGATCTCTGTGGGCGATTGACAGCGTAGAATGAAGG
DNA 2: CCTTCATTCTACGCTGTCAATCGCCCACAGAGATCAACTCCCATCCCTCATGTGCCCAGC
RARa:RXRa
  binding signal: -0.48 PBM z-score against 500 random probes

B3: NRC3_random_hg19_362_o1 (dsDNA)
DNA 1: GCGCCTTCTGCACCTCCTCAGTCCCTCTCCCTTTCCGCGATTGACAGCGTAGAATGAAGG
DNA 2: CCTTCATTCTACGCTGTCAATCGCGGAAAGGGAGAGGGACTGAGGAGGTGCAGAAGGCGC
RARg:RXRa
  binding signal: -0.73 PBM z-score against 500 random probes
RARa:RXRa
  binding signal: 0.1 PBM z-score against 500 random probes

B4: NRC3_random_hg19_40_o1 (dsDNA)
DNA 1: GCAAGAACCAGTGGATTCATAAGGGTGACAGTTCAGGCGATTGACAGCGTAGAATGAAGG
DNA 2: CCTTCATTCTACGCTGTCAATCGCCTGAACTGTCACCCTTATGAATCCACTGGTTCTTGC
RARa:RXRa
  binding signal: 0.33 PBM z-score against 500 random probes

B5: NRC3_random_hg19_133_o1 (dsDNA)
DNA 1: GCTCAAGGAGAAAGACACTCCTTTGAAGCGTTGGAAGCGATTGACAGCGTAGAATGAAGG
DNA 2: CCTTCATTCTACGCTGTCAATCGCTTCCAACGCTTCAAAGGAGTGTCTTTCTCCTTGAGC
RARa:RXRa
  binding signal: -0.29 PBM z-score against 500 random probes

B6: NRC3_random_hg19_349_o1 (dsDNA)
DNA 1: GCAGTGTATGCTAAACACCTTCACTTACCTTCCTCAGCGATTGACAGCGTAGAATGAAGG
DNA 2: CCTTCATTCTACGCTGTCAATCGCTGAGGAAGGTAAGTGAAGGTGTTTAGCATACACTGC
RARg:RXRa
  binding signal: 0.03 PBM z-score against 500 random probes
RARa:RXRa
  binding signal: -0.1 PBM z-score against 500 random probes

B7: NRC3_wobSeed76_DR3_T21G_o1 (dsDNA)
DNA 1: GCCCTACTGGGCCAAAAAGGGCATTGATGCCGATAAGCGATTGACAGCGTAGAATGAAGG
DNA 2: CCTTCATTCTACGCTGTCAATCGCTTATCGGCATCAATGCCCTTTTTGGCCCAGTAGGGC
RARa:RXRa
  binding signal: -0.04 PBM z-score against 500 random probes

B8: NRC3_random_hg19_243_o1 (dsDNA)
DNA 1: GCCAAATGCTAGCAGAAGGCAAGAAACAACTAAGATGCGATTGACAGCGTAGAATGAAGG
DNA 2: CCTTCATTCTACGCTGTCAATCGCATCTTAGTTGTTTCTTGCCTTCTGCTAGCATTTGGC
FXR:RXRa
  binding signal: -0.92 PBM z-score against 500 random probes
RARa:RXRa
  binding signal: -0.38 PBM z-score against 500 random probes

B9: NRC3_wobSeed114_DR4_T12C_o1 (dsDNA)
DNA 1: GCAATACAGGGCCATCGTAGGCCAGAGTACGCACAGGCGATTGACAGCGTAGAATGAAGG
DNA 2: CCTTCATTCTACGCTGTCAATCGCCTGTGCGTACTCTGGCCTACGATGGCCCTGTATTGC
RARa:RXRa
  binding signal: -0.01 PBM z-score against 500 random probes

B10: NRC3_random_hg19_470_o1 (dsDNA)
DNA 1: GCCAGGAAGGGACAAAGGCCAGGCATGGTGGTTCATGCGATTGACAGCGTAGAATGAAGG
DNA 2: CCTTCATTCTACGCTGTCAATCGCATGAACCACCATGCCTGGCCTTTGTCCCTTCCTGGC
RARa:RXRa
  binding signal: -0.18 PBM z-score against 500 random probes

B11: NRC3_random_hg19_454_o1 (dsDNA)
DNA 1: GCTGTCCTTTGTAGCAACATGTATGGAAATGGAGGCGCGATTGACAGCGTAGAATGAAGG
DNA 2: CCTTCATTCTACGCTGTCAATCGCGCCTCCATTTCCATACATGTTGCTACAAAGGACAGC
RARa:RXRa
  binding signal: 0.46 PBM z-score against 500 random probes

B12: NRC3_wobSeed27_DR1_G17C_o1 (dsDNA)
DNA 1: GCACTCGGAGGACAAACGTCAGAGCTACGCCAGTGAGCGATTGACAGCGTAGAATGAAGG
DNA 2: CCTTCATTCTACGCTGTCAATCGCTCACTGGCGTAGCTCTGACGTTTGTCCTCCGAGTGC
RARg:RXRa
  binding signal: 0.21 PBM z-score against 500 random probes
RARa:RXRa
  binding signal: -0.3 PBM z-score against 500 random probes

B13: NRC3_random_hg19_267_o1 (dsDNA)
DNA 1: GCGCCTCAGTCATGAGTCACATGAAAGTGACTCACCGCGATTGACAGCGTAGAATGAAGG
DNA 2: CCTTCATTCTACGCTGTCAATCGCGGTGAGTCACTTTCATGTGACTCATGACTGAGGCGC
RARa:RXRa
  binding signal: -0.31 PBM z-score against 500 random probes

B14: NRC3_random_hg19_271_o1 (dsDNA)
DNA 1: GCCTCCCTCCCATCGCCTGAACCTGCTGGAATGAGCGCGATTGACAGCGTAGAATGAAGG
DNA 2: CCTTCATTCTACGCTGTCAATCGCGCTCATTCCAGCAGGTTCAGGCGATGGGAGGGAGGC
PPARa:RXRa
  binding signal: 0.08 PBM z-score against 500 random probes
RARa:RXRa
  binding signal: 0.16 PBM z-score against 500 random probes

B15: NRC3_random_hg19_466_o1 (dsDNA)
DNA 1: GCAGCTTGACTTTGGTGACATTCTTCCTTCGTCCCTGCGATTGACAGCGTAGAATGAAGG
DNA 2: CCTTCATTCTACGCTGTCAATCGCAGGGACGAAGGAAGAATGTCACCAAAGTCAAGCTGC
RARa:RXRa
  binding signal: 0.17 PBM z-score against 500 random probes

B16: NRC3_random_hg19_496_o1 (dsDNA)
DNA 1: GCAGCATCTGACAAGGCTGACTACTCCCATCTGGATGCGATTGACAGCGTAGAATGAAGG
DNA 2: CCTTCATTCTACGCTGTCAATCGCATCCAGATGGGAGTAGTCAGCCTTGTCAGATGCTGC
RARa:RXRa
  binding signal: -0.43 PBM z-score against 500 random probes

B17: NRC3_random_hg19_279_o1 (dsDNA)
DNA 1: GCTGCAGTGGTAACAGTCTGACTTCTAAACTGCTATGCGATTGACAGCGTAGAATGAAGG
DNA 2: CCTTCATTCTACGCTGTCAATCGCATAGCAGTTTAGAAGTCAGACTGTTACCACTGCAGC
RARa:RXRa
  binding signal: -0.56 PBM z-score against 500 random probes

B18: NRC3_random_hg19_146_o1 (dsDNA)
DNA 1: GCGCCTCTAGGTCTTTGAGGAATTGCCACACTGTCTGCGATTGACAGCGTAGAATGAAGG
DNA 2: CCTTCATTCTACGCTGTCAATCGCAGACAGTGTGGCAATTCCTCAAAGACCTAGAGGCGC
RARa:RXRa
  binding signal: -0.8 PBM z-score against 500 random probes

B19: NRC3_random_hg19_308_o1 (dsDNA)
DNA 1: GCATGAACCACTTGAAGGGTGTGGCCTCCATCTTGCGCGATTGACAGCGTAGAATGAAGG
DNA 2: CCTTCATTCTACGCTGTCAATCGCGCAAGATGGAGGCCACACCCTTCAAGTGGTTCATGC
FXR:RXRa
  binding signal: -0.1 PBM z-score against 500 random probes
RARa:RXRa
  binding signal: 0.27 PBM z-score against 500 random probes

B20: NRC3_random_hg19_489_o1 (dsDNA)
DNA 1: GCAACAAAGCCTGTATGACAGCACATCTGTGTACAGGCGATTGACAGCGTAGAATGAAGG
DNA 2: CCTTCATTCTACGCTGTCAATCGCCTGTACACAGATGTGCTGTCATACAGGCTTTGTTGC
RARg:RXRa
  binding signal: -0.12 PBM z-score against 500 random probes
RARa:RXRa
  binding signal: -0.79 PBM z-score against 500 random probes

B21: NRC3_wobSeed51_DR2_G23A_o1 (dsDNA)
DNA 1: GCCCTCGGAGGACAGAAGGTCAAAGCTGTCCGCTTTGCGATTGACAGCGTAGAATGAAGG
DNA 2: CCTTCATTCTACGCTGTCAATCGCAAAGCGGACAGCTTTGACCTTCTGTCCTCCGAGGGC
FXR:RXRa
  binding signal: 3.12 PBM z-score against 500 random probes
RARa:RXRa
  binding signal: 3.96 PBM z-score against 500 random probes

B22: NRC3_wobSeed82_DR3_T27A_o1 (dsDNA)
DNA 1: GCATCGAAAGGTCGACGAGGTGAGTAAACACCGTTTGCGATTGACAGCGTAGAATGAAGG
DNA 2: CCTTCATTCTACGCTGTCAATCGCAAACGGTGTTTACTCACCTCGTCGACCTTTCGATGC
FXR:RXRa
  binding signal: 4.45 PBM z-score against 500 random probes
RARa:RXRa
  binding signal: 3.55 PBM z-score against 500 random probes

B23: NRC3_random_hg19_382_o1 (dsDNA)
DNA 1: GCAATGAAGTGGATGCATGGTTGGTGGCTCAGCAGCGCGATTGACAGCGTAGAATGAAGG
DNA 2: CCTTCATTCTACGCTGTCAATCGCGCTGCTGAGCCACCAACCATGCATCCACTTCATTGC
RARa:RXRa
  binding signal: -0.69 PBM z-score against 500 random probes

B24: NRC3_random_hg19_60_o1 (dsDNA)
DNA 1: GCGTGCTCACATGTCACATTCTGGTGATTCTTGCAAGCGATTGACAGCGTAGAATGAAGG
DNA 2: CCTTCATTCTACGCTGTCAATCGCTTGCAAGAATCACCAGAATGTGACATGTGAGCACGC
FXR:RXRa
  binding signal: -0.25 PBM z-score against 500 random probes
RARa:RXRa
  binding signal: 0.05 PBM z-score against 500 random probes

B25: NRC3_wobSeed122_DR5_T9A_o1 (dsDNA)
DNA 1: GCGCTAGTAGGTCAGTAAAAGGTCACACACCGGTCGGCGATTGACAGCGTAGAATGAAGG
DNA 2: CCTTCATTCTACGCTGTCAATCGCCGACCGGTGTGTGACCTTTTACTGACCTACTAGCGC
RARg:RXRa
  binding signal: 7.87 PBM z-score against 500 random probes
RARa:RXRa
  binding signal: 7.6 PBM z-score against 500 random probes

B26: NRC3_wobSeed134_DR5_G26A_o1 (dsDNA)
DNA 1: GCGCTGCTAGGTCAACTGATGGTCAACTAAAGCTCGGCGATTGACAGCGTAGAATGAAGG
DNA 2: CCTTCATTCTACGCTGTCAATCGCCGAGCTTTAGTTGACCATCAGTTGACCTAGCAGCGC
FXR:RXRa
  binding signal: 4.04 PBM z-score against 500 random probes
RARa:RXRa
  binding signal: 3.74 PBM z-score against 500 random probes

B27: NRC3_wobSeed134_DR5_A9C_o1 (dsDNA)
DNA 1: GCGCTGCTCGGTCAACTGATGGTCAGCTAAAGCTCGGCGATTGACAGCGTAGAATGAAGG
DNA 2: CCTTCATTCTACGCTGTCAATCGCCGAGCTTTAGCTGACCATCAGTTGACCGAGCAGCGC
PPARa:RXRa
  binding signal: 0.3 PBM z-score against 500 random probes
RARa:RXRa
  binding signal: 0.23 PBM z-score against 500 random probes

B28: NRC3_wobSeed136_DR5_C23T_o1 (dsDNA)
DNA 1: GCTAGCCTAGGTCATTCAGGGGTCAGTATAGAAAGCGCGATTGACAGCGTAGAATGAAGG
DNA 2: CCTTCATTCTACGCTGTCAATCGCGCTTTCTATACTGACCCCTGAATGACCTAGGCTAGC
RARg:RXRa
  binding signal: 8.33 PBM z-score against 500 random probes
RARa:RXRa
  binding signal: 7.49 PBM z-score against 500 random probes
